From patent US20030235860A1, “Interactions between AR, ER, TR2, and TR4” (priority 1999, published 2003)
Blank lines part the entries; values can stand above or below the molecule they belong to.

Molecular target: T1, AR (Homo sapiens, UniProt P10275, DEL79-80/DUP473-473)
T1 sequence (P10275 with tags, fused parts or gaps DEL79-80/DUP473-473): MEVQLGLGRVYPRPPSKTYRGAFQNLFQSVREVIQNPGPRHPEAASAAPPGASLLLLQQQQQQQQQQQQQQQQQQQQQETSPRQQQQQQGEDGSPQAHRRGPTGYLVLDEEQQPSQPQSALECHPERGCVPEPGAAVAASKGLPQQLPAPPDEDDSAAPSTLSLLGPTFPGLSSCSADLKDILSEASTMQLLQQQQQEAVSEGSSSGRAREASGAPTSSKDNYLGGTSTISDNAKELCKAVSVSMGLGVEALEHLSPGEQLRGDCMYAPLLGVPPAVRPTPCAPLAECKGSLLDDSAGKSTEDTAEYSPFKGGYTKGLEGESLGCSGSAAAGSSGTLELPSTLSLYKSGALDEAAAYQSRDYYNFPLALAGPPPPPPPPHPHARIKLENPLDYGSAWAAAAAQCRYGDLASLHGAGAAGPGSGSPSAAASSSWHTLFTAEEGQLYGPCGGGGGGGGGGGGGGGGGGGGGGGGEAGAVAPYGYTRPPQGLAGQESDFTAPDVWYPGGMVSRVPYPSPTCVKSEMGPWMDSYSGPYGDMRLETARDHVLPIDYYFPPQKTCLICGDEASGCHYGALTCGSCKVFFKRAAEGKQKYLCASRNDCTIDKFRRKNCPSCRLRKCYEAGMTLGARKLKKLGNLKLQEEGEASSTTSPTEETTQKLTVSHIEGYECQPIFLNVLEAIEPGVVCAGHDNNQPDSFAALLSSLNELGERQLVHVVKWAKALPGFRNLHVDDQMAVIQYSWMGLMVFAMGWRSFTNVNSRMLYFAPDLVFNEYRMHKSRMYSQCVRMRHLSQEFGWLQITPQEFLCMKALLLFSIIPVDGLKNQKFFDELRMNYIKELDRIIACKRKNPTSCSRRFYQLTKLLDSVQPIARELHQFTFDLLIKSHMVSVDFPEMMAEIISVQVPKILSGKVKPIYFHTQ
Test: AR-mediated transactivation reporter assay (MMTV / PSA reporters)
Type: cell-based
Design: A full-length AR(pSG5AR) was co-transfected with GAL4-TR4E; expressed in transfected cells; host or cells: COS, H1299, CHO, DU145, PC-3
Settings: for Transactivation by the AR receptor: similar procedures, no details given; for Activity AR (effect of regulator on transcription activity): Table 5
Excerpt: Cells were routinely maintained in DMEM with 10% heat-inactivated fetal bovine serum. The cells were transfected using a modified calcium phosphate precipitation method, Mizokami, & Chang, J: Biol. Chem. 269,25655-25659 (1994), or SuperFect (Qiagen). To normalize the transfection efficiency, the (3-galactosidase expression ver and pRL-TK were co-transfected in CAT assay and in Dual-luciferase reporter assay system (Promega), respectively.
Like TR4, AR itself acts as a transcription factor to activate many androgen target genes. 500 ng of MMTV-Luc (FIG. 4A), or PSA-Luc (FIG. 4B), were co-transfected with 40 ng pCMV-AR (lane 2-3) with increasing amounts of pCMX-TR4 (as indicated in FIG. 4). […] After 16-18 hours incubation, cells were harvested for Dual-rnciferase reporter assay. As expected, in COS, H1299, and CHO cells, AR activated MMTV luciferase activity in a DHT-dependent manner (FIG. 4A, lanes 2 and 3), which could then be repressed by the addition of TR4 (lanes 6 to 8). […] Similar suppression effects also occurred when the MMTV-ruciferase reporter was replaced with the PSA-Iuciferase reporter, another AR target gene (FIG. 4B).
As GR and PR can also induce MMTV—luciferase reporter, Beato, M., Ce//56, 335-344 (1989), determining if TR4 could also repress OR- or PR-mediated transactivation was analyzed. Three μg of MMTV-Luc was co-transfected with 4 μg of pCMX-TR4 in the presence of 1 μg of pSG5AR, pSG5GR, or pSG5PR by modified calcium-phosphate method. […] Dual-luciferase reporter assays were performed. PRL-TK was used to normalize the transfection efficiency. […] Similar results were observed when the same experiments of AR-mediated transactivation were repeated in DU145 cells.
Human prostate cancer PC-3 cells were maintained in DMEM containing penicillin (25 units/ml), streptomycin ([…]), and 5% FCS. Human prostate cancer LNCaP cells were maintained in RPMI 1640 containing penicillin (25 units/ml), streptomycin ([…]), and 10% FCS. PC-3 cell were transfected using the calcium phosphate precipitation method as described previously [Mu X. M. et al. (1998) Endocrine 9:27-32], and LNCaP cells were transfected by using Superfect™ according to the manufacturer's procedures (Qiagen, Chatsworth, Calif.). CAT assay was performed as described previously [Lee Y. et al. (1999) Proc Natl Acad Sci USA 96:14724-14729], and is herein incorporated by reference at least for material related to the CAT assays].

Transactivation by the AR receptor: suppress
Molecule: RXR: retinoid X receptor, another member of the steroid receptor superfamily

AR-activated MMTV luciferase activity (similar with PSA-luciferase) (COS, H1299 and CHO cells, 10 nM DHT, increasing pCMX-TR4): repressed
AR-mediated MMTV-luciferase transactivation (H1299 cells (similar in DU145), 4 μg pCMX-TR4, 10 nM DHT): repress
Activity AR (effect of regulator on transcription activity): Down
B1: TR4: human testicular orphan nuclear receptor 4, SEQ ID NO:16; expressed from plasmid or in vitro translated (protein)
chain: MTSPSPRIQIISTDSAVASPQRIQGSEPASGPLSVFTSLNKEKIVTDQQTGQKIQIVTAVDASGSPKQQFILTSPDGAGTGKVILASPETSSAKQLIFTTSDNLVPGRIQIVTDSASVERLLGKTDVQRPQVVEYCVVCGDKASGRHYGAVSCEGCKGFFKRSVRKNLTYSCRSSQDCIINKHHRNRCQFCRLKKCLEMGMKMESVQSERKPFDVQREKPSNCAASTEKIYIRKDLRSPLIATPTFVADKDGARQTGLLDPGMLVNIQQPLIREDGTVLLATDSKAETSQGALGTLANVVTSLANLSESLNNGDTSEIQPEDQSASEITRAFDTLAKALNTTDSSSSPSLADGIDTSGGGSIHVISRDQSTPIIEVEGPLLSDTHVTFKLTMPSPMPEYLNVHYICESASRLLFLSMHRARSIPAFQGLGQDCNTSLVRACWNELFTLGLAQCAQVMSLSTILAAIVNHLQNSIQEDKLSGDRIKQVMEHIWKLQEFCNSMANWDIDGYEYAYLKAIVLFSPDHPGLTSTSQIEKFQEKAQMELQDYVQKTYSEDTYRLARILVRLPALRLMSSNITEELFFTGLIGNVSIDSIIPYILKMETAEYNGQITGVSL

B2: TR2: human testicular orphan nuclear receptor 2, 603 amino acids (protein, UniProt P13056 1-603, looked up)
chain: MATIEEIAHQIIEQQMGEIVTEQQTGQKIQIVTALDHNTQGKQFILTNHDGSTPSKVILARQDSTPGKVFLTTPDAAGVNQLFFTTPDLSAQHLQLLTDNSPDQGPNKVFDLCVVCGDKASGRHYGAVTCEGCKGFFKRSIRKNLVYSCRGSKDCIINKHHRNRCQYCRLQRCIAFGMKQDSVQCERKPIEVSREKSSNCAASTEKIYIRKDLRSPLTATPTFVTDSESTRSTGLLDSGMFMNIHPSGVKTESAVLMTSDKAESCQGDLSTLANVVTSLANLGKTKDLSQNSNEMSMIESLSNDDTSLCEFQEMQTNGDVSRAFDTLAKALNPGESTACQSSVAGMEGSVHLITGDSSINYTEKEGPLLSDSHVAFRLTMPSPMPEYLNVHYIGESASRLLFLSMHWALSIPSFQALGQENSISLVKAYWNELFTLGLAQCWQVMNVATILATFVNCLHNSLQQDKMSTERRKLLMEHIFKLQEFCNSMVKLCIDGYEYAYLKAIVLFSPDHPSLENMEQIEKFQEKAYVEFQDYITKTYPDDTYRLSRLLLRLPALRLMNATITEELFFKGLIGNIRIDSVIPHILKMEPADYNSQIIGHSI
modifications: full-length
notes: human testicular orphan nuclear receptor 2, 603 amino acids
MMTV-CAT and PSA-CAT activity (PC-3 cells, 10 nM DHT, 2, 4 and 7 μg pCMV-TR2): strongly suppresses
AR-mediated transcription (MMTV-Luc) (PC-3 cells, Example 2): suppress
Activity AR (effect of regulator on transcription activity): Down
Transactivation by the AR receptor: suppress
